Test results from patent US20250381283A1, “METHOD FOR TREATING SOLID TUMOR” (priority 2022, published 2025).

Biological target: T1, TROP2 (Trophoblast cell surface antigen 2) (UniProt P09758 27-323, limits assumed)
T1 sequence (looked up): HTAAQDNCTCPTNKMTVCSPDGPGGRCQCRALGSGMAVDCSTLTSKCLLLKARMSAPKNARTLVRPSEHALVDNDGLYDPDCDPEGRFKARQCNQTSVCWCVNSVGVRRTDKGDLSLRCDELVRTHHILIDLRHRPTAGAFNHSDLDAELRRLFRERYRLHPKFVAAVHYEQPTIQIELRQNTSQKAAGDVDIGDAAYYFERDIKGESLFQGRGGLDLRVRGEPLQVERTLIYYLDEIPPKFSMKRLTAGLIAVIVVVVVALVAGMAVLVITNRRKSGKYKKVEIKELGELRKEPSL
Assay: cell-based or functional assay

B1: ADC1 (hRS9 antibody conjugated to CB07-Exatecan) (antibody, human IgG1, kappa, DAR 4.2, V domains shown)
VH: QVQLQQSGSELKKPGASVKVSCKASGYTFTNYGMNWVKQAPGQGLKWMGWINTYTGEPTYTDDFKGRFAFSLDTSVSTAYLQISSLKADDTAVYFCARGGFGSSYWYFDVWGQGTLVTVSS
VL: DIQLTQSPSSLSASVGDRVSITCKASQDVSIAVAWYQQKPGKAPKLLIYSASYRYTGVPDRFSGSGSGTDFTLTISSLQPEDFAVYYCQQHYITPLTFGAGTKVEIKR
modifications: CB07-Exatecan linker-drug conjugated to sulfhydryls of TCEP-reduced cysteines; average DAR (p) 4.2 over the whole antibody; positions not given
growth inhibition EC50 (CCK-8 cell proliferation, 120 h), MDA-MB-453 cells: 0.64 mg/L | growth inhibition EC50 (CCK-8 cell proliferation, 120 h), MDA-MB-468 cells: 0.158 mg/L | growth inhibition EC50 (CCK-8 cell proliferation, 120 h), MX-1 cells: 0.233 mg/L
